According to article PMC4446437 (Nucleic Acids Research, 2015):

Molecular target: T1, His-tagged Set7 (human, UniProt Q8WTS6 1-366)
T1 sequence (looked up): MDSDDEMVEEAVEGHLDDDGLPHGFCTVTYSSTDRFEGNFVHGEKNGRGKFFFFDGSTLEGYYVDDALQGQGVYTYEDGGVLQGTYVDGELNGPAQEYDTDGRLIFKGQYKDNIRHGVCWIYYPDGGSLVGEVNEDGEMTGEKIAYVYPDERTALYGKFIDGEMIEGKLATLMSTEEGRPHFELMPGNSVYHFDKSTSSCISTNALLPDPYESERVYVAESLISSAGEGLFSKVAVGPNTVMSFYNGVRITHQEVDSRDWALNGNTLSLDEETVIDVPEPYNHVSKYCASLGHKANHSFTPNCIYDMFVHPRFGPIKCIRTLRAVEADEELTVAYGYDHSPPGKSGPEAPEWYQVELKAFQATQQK
Experiment: pull-down

B1: GST-HIF-1α-(amino acids 576–785) (domain or fragment, human, UniProt Q16665 576-785, looked up)
chain: SFDQLSPLESSSASPESASPQSTVTVFQQTQIQEPTANATTTTATTDELKTVTKDRMEDIKILIASPSPTHIHKETTSATSSPYRDTQSRTASPNRAGKGVIEQTEKSHPRSPNVLSVALSQRTTVPEEELNPKILALQNAQRKRKMEHDGSLFQAVGIGTLLQQPDDHAATTSLSWKRVKGCKSSEQNGMEQKTIILIPSDLACRLLGQ
binding result: binds
